Laboratory results published in patent US20230212304A1 (BIOSION, published 2023).

T1: recombinant human CTLA4-his protein (Acro biosystems, Cat#CT4-H5229) (human, UniProt P16410 37-162)
T1 construct: bought recombinant protein; not shown: his tag
T1 sequence (looked up): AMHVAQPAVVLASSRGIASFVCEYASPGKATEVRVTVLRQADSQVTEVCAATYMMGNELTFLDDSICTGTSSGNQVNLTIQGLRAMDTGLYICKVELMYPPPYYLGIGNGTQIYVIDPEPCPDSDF


What follows are binders tested against T1, recombinant human CTLA4-his protein … (assay: BLI, Octet; antibody from cell supernatant on AHC sensor, CTLA4-his as analyte).
Method: Briefly, AHC biosensors (anti-human IgG Fc capture, from ForteBio) were presoaked with 10 mM glycine (pH 1.5) for 3 seconds, and then dipped in a well with running buffer (0.5% w/v BSA in PBST) for 3 seconds, the soaking and dipping steps were repeated for three times. […] A new baseline was run for 180 seconds in another well with running buffer. […] Finally, sensors were presoaked with 10 mM glycine (pH 1.5) for 3 seconds, and then were dipped in a well with running buffer for 3 seconds, the soaking and dipping steps repeated for three times. The association and dissociation curves were fit to a 1:1 Langmuir binding model using ForteBio Data Analysis 8.1.

Binder | Kd | koff | kon
huC1D1-V5 (antibody, human IgG4 S228P, kappa, V domains shown, humanized IgG4/kappa; tested as 293F cell supernatant on Octet; also called hu CTLA4 C1D1-V5) VH: EVQLVESGGGLVQPGRSLRLSCTASGFTFSDNWMNWVRQAPGKGLEWVAQIRNKPYNYETYYSDSVKGRFTISRDDSKSIVYLQMNSLKTEDTAVYYCTGGMDYWGQGTTVTVSS VL: DIQMTQSPSSLSASVGDRVTITCGASEIIYGALNWYQQKPGKSPKLLIYGATNLADGVPSRFSGSGSGTDFTLTISSLQPEDVATYYCQKILSPPPWTFGGGTKVEIKR | 2.08 nM | 0.000476 s⁻¹ | 229000 M⁻¹ s⁻¹
huC1D1-V10 (antibody, human IgG4 S228P, kappa, V domains shown, humanized IgG4/kappa; tested as 293F cell supernatant on Octet; also called hu CTLA4 C1D1-V10) VH: EVQLVESGGGLVQPGRSLRLSCTASGFTFSDNWMNWVRQAPGKGLEWVAQIRNKPYNYETYYSDSVKGRFTISRDDSKSIAYLQMNSLKTEDTAVYYCTGGMDYWGQGTTVTVSS VL: DIQMTQSPSSLSASVGDRVTITCGASEIIYGALNWYQQKPGKVPKLLIYGATNLADGVPSRFSGSGSGTDFTLTISSLQPEDVATYYCQKILSPPPWTFGGGTKVEIKR | 0.943 nM | 0.000304 s⁻¹ | 322000 M⁻¹ s⁻¹
huC1D1-V2 (antibody, human IgG4 S228P, kappa, V domains shown, humanized IgG4/kappa; tested as 293F cell supernatant on Octet; also called hu CTLA4 C1D1-V2) VH: EVQLVESGGGLVQPGRSLRLSCTASGFTFSDNWMNWVRQAPGKGLEWVAQIRNKPYNYETYYSDSVKGRFTISRDDSKSIAYLQMNSLKTEDTAVYYCTGGMDYWGQGTTVTVSS VL: DIQMTQSPSSLSASVGDRVTITCGASEIIYGALNWYQQKPGKSPKLLIYGATNLADGMPSRFSGSGSGRDYTLTISSLQPEDVATYYCQKILSPPPWTFGGGTKVEIKR | 0.559 nM | 0.000149 s⁻¹ | 267000 M⁻¹ s⁻¹
huC1D1-V7 (antibody, human IgG4 S228P, kappa, V domains shown, humanized IgG4/kappa; tested as 293F cell supernatant on Octet; also called hu CTLA4 C1D1-V7) VH: EVQLVESGGGLVQPGRSLRLSCTASGFTFSDNWMNWVRQAPGKGLEWVGQIRNKPYNYETYYSDSVKGRFTISRDDSKSIVYLQMNSLKTEDTAVYYCTGGMDYWGQGTTVTVSS VL: DIQMTQSPSSLSASVGDRVTITCGASEIIYGALNWYQQKPGKSPKLLIYGATNLADGVPSRFSGSGSGTDFTLTISSLQPEDVATYYCQKILSPPPWTFGGGTKVEIKR | 0.362 nM | 0.000169 s⁻¹ | 466000 M⁻¹ s⁻¹
huC1D1-V3 (antibody, human IgG4 S228P, kappa, V domains shown, humanized IgG4/kappa; tested as 293F cell supernatant on Octet; also called hu CTLA4 C1D1-V3) VH: EVQLVESGGGLVQPGRSLRLSCTASGFTFSDNWMNWVRQAPGKGLEWVGQIRNKPYNYETYYSDSVKGRFTISRDDSKSIVYLQMNSLKTEDTAVYYCTGGMDYWGQGTTVTVSS VL: DIQMTQSPSSLSASVGDRVTITCGASEIIYGALNWYQQKPGKSPKLLIYGATNLADGMPSRFSGSGSGRDYTLTISSLQPEDVATYYCQKILSPPPWTFGGGTKVEIKR | 1.16 nM | 0.000259 s⁻¹ | 224000 M⁻¹ s⁻¹
huC1D1-V6 (antibody, human IgG4 S228P, kappa, V domains shown, humanized IgG4/kappa; tested as 293F cell supernatant on Octet; also called hu CTLA4 C1D1-V6) VH: EVQLVESGGGLVQPGRSLRLSCTASGFTFSDNWMNWVRQAPGKGLEWVAQIRNKPYNYETYYSDSVKGRFTISRDDSKSIAYLQMNSLKTEDTAVYYCTGGMDYWGQGTTVTVSS VL: DIQMTQSPSSLSASVGDRVTITCGASEIIYGALNWYQQKPGKSPKLLIYGATNLADGVPSRFSGSGSGTDFTLTISSLQPEDVATYYCQKILSPPPWTFGGGTKVEIKR | 0.821 nM | 0.000287 s⁻¹ | 349000 M⁻¹ s⁻¹

The remaining binders from weak to strong by Kd, led by results:

Kd | koff | kon | Binder
1.25 nM | 0.000457 s⁻¹ | 365000 M⁻¹ s⁻¹ | huC1D1-V11 (antibody, human IgG4 S228P, kappa, V domains shown, humanized IgG4/kappa; tested as 293F cell supernatant on Octet; also called hu CTLA4 C1D1-V11) VH: EVQLVESGGGLVQPGRSLRLSCTASGFTFSDNWMNWVRQAPGKGLEWVGQIRNKPYNYETYYSDSVKGRFTISRDDSKSIVYLQMNSLKTEDTAVYYCTGGMDYWGQGTTVTVSS VL: DIQMTQSPSSLSASVGDRVTITCGASEIIYGALNWYQQKPGKVPKLLIYGATNLADGVPSRFSGSGSGTDFTLTISSLQPEDVATYYCQKILSPPPWTFGGGTKVEIKR
0.995 nM | 0.000304 s⁻¹ | 306000 M⁻¹ s⁻¹ | huC1D1-V12 (antibody, human IgG4 S228P, kappa, V domains shown, humanized IgG4/kappa; tested as 293F cell supernatant on Octet; also called hu CTLA4 C1D1-V12; huC1D1-VI2) VH: EVQLVESGGGLVQPGRSLRLSCTASGFTFSDNWMNWVRQAPGKGLEWVGQIRNKPYNYETYYSDSVKGRFTISRDDSKSIAYLQMNSLKTEDTAVYYCTGGMDYWGQGTTVTVSS VL: DIQMTQSPSSLSASVGDRVTITCGASEIIYGALNWYQQKPGKVPKLLIYGATNLADGVPSRFSGSGSGTDFTLTISSLQPEDVATYYCQKILSPPPWTFGGGTKVEIKR
0.736 nM | 0.000228 s⁻¹ | 310000 M⁻¹ s⁻¹ | huC1D1-V9 (antibody, human IgG4 S228P, kappa, V domains shown, humanized IgG4/kappa; tested as 293F cell supernatant on Octet; also called hu CTLA4 C1D1-V9) VH: EVQLVESGGGLVQPGRSLRLSCTASGFTFSDNWMNWVRQAPGKGLEWVAQIRNKPYNYETYYSDSVKGRFTISRDDSKSIVYLQMNSLKTEDTAVYYCTGGMDYWGQGTTVTVSS VL: DIQMTQSPSSLSASVGDRVTITCGASEIIYGALNWYQQKPGKVPKLLIYGATNLADGVPSRFSGSGSGTDFTLTISSLQPEDVATYYCQKILSPPPWTFGGGTKVEIKR
